Reference: patent US20150104459A1
Residue numbers refer to the chain shown, from its start.

B1: TCN-521 (3280_D18) (antibody, V domains shown)
VH: EVQLVQSGGGLVQPGGSLRLACVVSGFTVTSNYITWVRQAPGKGLEWVSVIYSHGRAYYSASVNGRFTISRHTSKNTVYLEMNSLRPEDTAVYYCAGGGLVGGYDEYFFDYWGQGTLATVSS
VL: ETVLTQSPGTLSLTPGERATLSCRVGQSVSGSHLAWYQQKPGQAPRLLIYGASSRATGIPDRFGGSVSGTDFTLTISRLEPEDSAVYYCQQYGDSRYTFGQGTKLEIK
B2: TCN-551 (5243_D01) (antibody, V domains shown)
VH: EVQLVQSGSEVKKPGESLKISCKGSGYSFSNYWIGWVRHMPGKGLEWMGIIYPGDSDTRYSPSFQGQVTMSADKSSSTVYLQWSSLKASDTAIYYCARRGGHSFGYGSGGDTHSEFDSWGQGTLVTVSS
VL: QSVLTQSPSVSAAPGQKVTISCSGSDSNIGDYFVCWYQHLPGKPPQLLIYENNKRPSGIPDRFSGSKSGTSATLGITGIQTGDEADYYCATWDGSLSAWVFGGGTKLTVL
B3: TCN-537 (3194_D21) (antibody, V domains shown)
VH: QVQLQQWGSGLLKPSETLSLTCAVYGGSFRDDYWTWIRQPPGKGLEWIGEINHSGRTNYNPSLKSRVTISVDTSLKQFSLKVISVTAADTAVYYCARGTSHVSRYFDWLPPTNWFDPWGQGTQVTVSS
VL: DIVLTQSPGTLSLSPGERATLSCRASQSVSSSYLAWYQQKPGQAPRLVMYGAATRATGIPDRFSGSGSGPDFTLTISRLEPEDFAMYYCQQYGNSPITFGQGTRLEIK
B4: TCN-533 (5256_A17) (antibody, V domains shown)
VH: QVQLVQSGADVKKPGSSVTVSCKASGGSFSNYGINWVRQAPGQGLEWMGGIIPLINAPNYAPKFQGRVTITADMFSNIVSLQLTSLRTDDTAVYYCARRKMTTAIDYWGQGTLVTVSS
VL: QPVLSQPPSASASLGASVTLTCTLSSGFDNYQVAWYQQRPGKGPRFVMRVGNGGNVASKGDGIPDRFSVSGSGLNRYLTIKNIQEDDESDYYCGADHGSGNNFVSPYVFGGGTKLTVL
B5: TCN-553 (5261_C18) (antibody, V domains shown)
VH: QVQVVQSGTEVKKPGSSVKVSCQTSGGRFMSYAITWVRQAPGQGLEWMGGIVPVFGTANYAQKFQGRVTITTDDSTRTAYMELSSLRSEDTAVYYCGFRYGSGYGFDSWGQGTLVTVSS
VL: EIVLTQSPGTLSLSPGERATLSCRASQSVSSSYLAWYQKKPGQAPRLLIYGASTRATGIPDRFTGSGSGTDFTLSISRLEPEDFAVYYCQHFGTSVFTFGGGTKVEIK
B6: TCN-552 (5249_I23) (antibody, V domains shown)
VH: QVQVVQSGAEVKKPGSSVRVSCQASGGTFMNYAIIWVRRAPGQGLEWMGGIIPVFPTPNYAQMFQGRVTISTDESRSTSFLELTNLRYEDTAVYYCARRIYHGGNSGFDFWGQGTLVTVSS
VL: EIVLTQSPATLSLSPGERATLSCRASQSVGNYLAWYQQKPGQAPRLLIYDSSNRAPGIPARFSGSGSGTDFTLTISSLAPEDFAVYYCQQRSKWPPMYSFGHGTKLEIK
B7: TCN-523 (5248_A17) (antibody, V domains shown)
VH: QVQLVQSGAEVKKPGSSVKVSCKASGGSFSNYAFSWVRQAPGQGLEWMGGTIPLLGTTNYAQKFQGRVTISADQFTSTAYMELGSLRSEDTAVYYCTRRKMTTAFDSWGQGTLVTVSS
VL: QPVLTQPPSASASLGASVTLTCTLSSAYSNYKVDWYQQRPGKGPRFVMRVGTGGIVGSKGDGIPDRFSVLGSGLNRYLTIKNIQEEDESDYHCGADHGSGSNFVSPYVFGGGTKLTVL
B8: TCN-530 (5248_H10a) (antibody, V domains shown)
VH: QVQLVQSGAEVRKPGSSVKVSCKASGGPFMSYAIGWVRQAPGQGLEWMGGINPVFGRPHYAQKFQGRVTIATDDSTKTSYMELSSLTSEDTGMYYCASRYSRSSPGTFESWGQGTLVTVSS
VL: EIVMTQFPATLSVSPGERVTLSCRASQSVSNNLAWYQQKPGQPPRLLIYDASTRATGVPAKFSGTGSGTEFTLSISSLQSEDFAVYYCQQYHNWPPSYSFGLGTKLEIK
B9: TCN-540 (5060_F05) (antibody, V domains shown)
VH: QVQLVQSGGGVVQPGRSLRLSCAASGFTFSSYAMHWVRQAPGKGLEWVAIISYDGNDQYYTDSVKGRFTISRDSSKVYLQMHRLRPEDTAVYYCAKEFETSGYFHGSFDYWGQGILVTVSS
VL: QSALTQPASVSGSPGQSITISCTGTSSDVGGYNYVSWYQQHPGKAPKLLIYEVTNWPSGVSNRFSGSKSGNTASLTISGLQAEDEADYYCSSYAGSSTWVFGGGTRVTVL
B10: TCN-538 (3206_O17) (antibody, V domains shown)
VH: QITLKESGPTLVKPTQTLTLTCVFSGFSLSITGVRVGWIRQPPGKALEWLALISWDDEKHYSPSLQSRLTITKDTSKNQVVLTMTNLDPVDTATYYCARSTDRGHVLRYFGWMLPGDAFDVWGQGTMVTVSS
VL: DIVMTQSPDFLPVSLGERATINCKSSQRVLYSSNNKNYLAWYQLKPGQPPKLIIYWASTRESGVPDRFSGSGSGTEFTLTISSLQAEDVAVYYCQQYYSRPYTFGQGTKLEIK
B11: TCN-555 (5246_L16) (antibody, V domains shown)
VH: QVQLVQSGAEVKRPGSSVKVSCTASGGIFRKNAISWVRQAPGQGLEWMGGIIAVFNTANYAQKFQNRVKITADESGNTAYMELSSLTSDDTAVYYCASHPKYFYGSGSYPDFWGQGTLVTVSS
VL: QSALTQPRSVSGSPGQSITISCTGGSSDIGASNSVSWYQQHPGKAPKLVIFDVTERPSGVPHRFSGSKSGNTASLTVSGLQPDDEADYFCCAYGGKYLVVFGGGTKVTVL
B12: TCN-563 (5237_B21) (antibody, V domains shown)
VH: B11 VH with V5A, N66G, T87R
VL: B11 VL with I18V, G25S, I29V, F51Y, D83E
B13: TCN-534 (5249_B02) (antibody, V domains shown)
VH: QVQLVQSGAEVKKPGSSVKVSCRESGGTFNGYTITWVRQAPGQGLEWMGGIIPMMGTVNYAQKLQGRVTITTDYFTKTAYMDLNNLRSEDTAMYYCVKIRYTGQQLLWGQGTLVTVSS
VL: DIQMTQSPSTLSASIGDRVTITCRASQSIASWLAWYQQKPGKAPKLLIYEAVNLESGVPSRFSGSGSGTDFTLTISSLQPDDFATYFCQHYGTISQTFGGGTKVEIK
B14: TCN-535 (5246_P19) (antibody, V domains shown)
VH: QVQLVQSGSEVKKPGTSVKVSCTASGSVFTNYGISWVRQAPGQGLEWMGGIIPLFGAAKYAQKFQGRVTITADESTKTVYMELSRLTSKDTAIYFCAKAPRVYEYYFDQWGQGTPVTVSS
VL: EIVLTQSPGTLSLSPGERATLSCRASQSVSSSQLAWYQQKPGQAPRLIIYGASTRATGIPDRFSGSGSGTDFTLTIGRLEPEDFAVFFCQQYSTSPPTFGQGTKVDFK
B15: TCN-543 (5081_G23) (antibody, V domains shown)
VH: QVHLVQSGAEVRKPGDSVKVSCKTSGYTFSTYPVAWVRQVPGQGLEWMGWISTYNGNTNFAQNFQGRVTLTTDTTTNTAYMEVRSLKFDDTAVYYCARVEGSYRDFWNNQNRFDPWGQGTLVTVSS
VL: SYVLTQPPSVSVAPGQTARISCGGSNIGGKSVHWYQQKPGQAPVLVVYDDSGRPSGIPERFSGSNSGDTATLTISRVEAGDEADYFCQVWDNFGGVFGTGTKVTVL
B16: TCN-546 (5089_L08) (antibody, V domains shown)
VH: QVQLQQWGAGLLKPSETLSLTCGVYGGSLSDYYWSWIRQPPGKGLEWIGEINHSGGTNYNPSLKRRVTISVDTSKKQFSLKMNSVTAADTAVYYCARGTDPDTEVYCRAGNCAAFDFWGQGTLVTVSS
VL: EIVLTQSPGTLSLSPGERATLSCRASHFVIGRAVAWYQQKPGQAPRLLIYGASSRATGIPDRFSGSGSGTDFTLTISRLETEDFAVFYCQHYGSSPRYAFGQGTKLEIK
B17: TCN-545 (5082_I15) (antibody, V domains shown)
VH: QVQLQQWGAGLLKPSETLSLSCAVFGGSFSDYYWTWIRQPPGKGLEWIGEIKHSGRTNYNPSLESRVTISVDTSKNQFSLKLSSVTAADTAIYYCARGTDPDTEGYCRSGSCSAFDFWGQGTLVTVSS
VL: EIVLTQSPGTLSLSPGERATLSCRASHFVNYRSLAWYQQTPGQVPRLLIYGASTRATGIPDRFSGSGSGTDFTLTISRLEPEDFAVYFCQQYGGSPRYTFGQGTRLEIK
B18: TCN-550 (5096_F06) (antibody, V domains shown)
VH: QVQLQESGPGLVKPSETLSLTCTVSGASINSHYWSWIRQPPGKGLEWIGYVYYSGSTTYNPSLKSRVTLSVDTSKNQFSLNLSSVTAADTAFYYCARHPYDVLTGSGDWFDPWGQGTLVTVSS
VL: SYVLTQAPSVSVAPGQTARITCGGNAIGSKKVHWYQHKAGQAPVLVVYDDTDRPSGIPERFSGSNSWSTATLTINRVEAGDEADYYCQVWDFTIDHVVFGGGTKLTVL
B19: TCN-557 (5081_A04) (antibody, V domains shown)
VH: QVQLVQSGAEVKKPGASVKVSCKASGHTFTGYYIHWVRQAPGQGLEWMGWINPDSGATSSAQNFQGRVTMTGDTSSSTAYMELSRLSFDDTAVYYCARVLFTSPFDFWGEGTLVTVSS
VL: QAVVTQEPSLAVSPGGTVTLTCGSSTGAVTRGHYPYWFQQKPGQAPRALIYDSAGNRHSWTPARFSGSLLGGKAALTLSGAQPEDEAEYYCLLSYSGVWVFGGGTKLTVL
B20: TCN-542 (5079_A16) (antibody, V domains shown)
VH: QVQLQESGPGLVKPSQTLSLTCTVSGGSISSGNYYWNWVRQHPGKGLEWIGYIYYRGSTFYNPSLKSRVTISIDTSKNQFSLRLSSVTAADTAVYYCAKDTRSSLDNYQYGMDVWGQGTTVTVSS
VL: QTVVTQEPSLTVSPGGTVTLTCASSTGAVTSSYFPNWFQQKPGQAPRPLIYSTTIRHSWTPARFSGSLLGGKAALTLSGVQPEDEADYYCLLYSGGDPVAFGGGTKLTVL

These binders were tested against recombinant soluble homotrimeric HA of A/common magpie/Hong Kong/5052/07 (H5N1) (Influenza A virus A/common magpie/Hong Kong/5052/2007 (H5N1)) (assay: HA microarray, BCC supernatant). Settings: remark: other sources report otherwise.

Row | Binder | Trimeric HA Binding RLU
1 | B1 | 13500 RLU
2 | B2 | 45700 RLU
3 | B3 | 18700 RLU
4 | B4 | 44500 RLU
5 | B5 | 26000 RLU
6 | B6 | 42200 RLU
7 | B7 | 45800 RLU
8 | B8 | 42500 RLU
9 | B9 | 113 RLU
10 | B10 | 18700 RLU
11 | B11 | 16100 RLU
12 | B12 | 27500 RLU
13 | B13 | 32500 RLU
14 | B14 | 45900 RLU

What follows are binders tested against recombinant soluble homotrimeric HA, A/common magpie/Hong Kong/5052/07 (H5N1) (influenza A virus A/common magpie/Hong Kong/5052/2007 (H5N1)) (assay: microarray, trimeric HA, transfection supernatant). Settings: remark: other sources report otherwise.

Row | Binder | Trimeric HA Binding RLU
15 | B3 | 2070 RLU
16 | B5 | 39200 RLU
17 | B6 | 34600 RLU
18 | B15 | 1070 RLU
19 | B16 | 1920 RLU
20 | B17 | 1390 RLU
21 | B9 | 1800 RLU
22 | B10 | 3140 RLU
23 | B11 | 33600 RLU
24 | B18 | 993 RLU
25 | B19 | 54900 RLU
26 | B14 | 477 RLU
27 | B20 | 1670 RLU
